In patent US20240158512A1 (TRUEBINDING, published 2024):

Key:
Galectin-3 [1] = target: T1, Galectin-3 (UniProt P17931 1-250, limits assumed); assay: BLI binding activity; DP stored at 5° C. for 9 months
T1 construct: also called Gal3; GAL3

Galectin-3 [2] = target: T1, Galectin-3; assay: ELISA biological activity (blocking ELISA, blocked partner not named); DP stored at 5° C. for 12 months
Galectin-3 [3] = target: T1, Galectin-3; assay: ELISA biological activity (blocking ELISA, blocked partner not named); DP stored at 25° C. for 6 months
Galectin-3 [4] = target: T1, Galectin-3; assay: ELISA biological activity (blocking ELISA, blocked partner not named); DP stored at 5° C. for 1 month
Galectin-3 [5] = target: T1, Galectin-3; assay: BLI binding activity; DP stored at 25° C. for 6 months
Galectin-3 [6] = target: T1, Galectin-3; assay: ELISA biological activity (blocking ELISA, blocked partner not named); 20 mg/mL DP, time 0; Time 0 (control), 20 mg/mL DP
Galectin-3 [7] = target: T1, Galectin-3; assay: BLI binding activity; DP stored at 5° C. for 12 months
Galectin-3 [8] = target: T1, Galectin-3; assay: BLI binding activity; DP stored at 5° C. for 1 month
Galectin-3 [9] = target: T1, Galectin-3; assay: ELISA biological activity (blocking ELISA, blocked partner not named); DP stored at 5° C. for 18 months
Galectin-3 [10] = target: T1, Galectin-3; assay: BLI binding activity; DP stored at 5° C. for 6 months
Galectin-3 [11] = target: T1, Galectin-3; assay: BLI binding activity; DP stored at 25° C. for 1 month
Galectin-3 [12] = target: T1, Galectin-3; assay: ELISA biological activity (blocking ELISA, blocked partner not named); DP stored at 5° C. for 9 months
Galectin-3 [13] = target: T1, Galectin-3; assay: BLI binding activity; DP stored at 5° C. for 18 months
Galectin-3 [14] = target: T1, Galectin-3; assay: ELISA biological activity (blocking ELISA, blocked partner not named); DP stored at 25° C. for 1 month
Galectin-3 [15] = target: T1, Galectin-3; assay: ELISA biological activity (blocking ELISA, blocked partner not named); DP stored at 25° C. for 3 months
Galectin-3 [16] = target: T1, Galectin-3; assay: ELISA biological activity (blocking ELISA, blocked partner not named); DP stored at 5° C. for 3 months
Galectin-3 [17] = target: T1, Galectin-3; assay: ELISA biological activity (blocking ELISA, blocked partner not named); DP stored at 5° C. for 6 months
Galectin-3 [18] = target: T1, Galectin-3; assay: BLI binding activity; DP stored at 5° C. for 3 months
Galectin-3 [19] = target: T1, Galectin-3; assay: BLI binding activity; DP stored at 25° C. for 3 months

T1 sequence (P17931 whole entry): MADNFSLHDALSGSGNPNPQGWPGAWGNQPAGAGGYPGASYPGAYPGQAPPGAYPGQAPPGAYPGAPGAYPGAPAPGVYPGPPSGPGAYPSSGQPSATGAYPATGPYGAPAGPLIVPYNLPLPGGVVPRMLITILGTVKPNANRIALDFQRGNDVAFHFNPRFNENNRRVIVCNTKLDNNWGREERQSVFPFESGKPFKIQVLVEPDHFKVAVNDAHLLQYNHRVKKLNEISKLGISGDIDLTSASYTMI

B1: TB006 (antibody, human IgG4 S228P, kappa, V domains shown)
VH: QVQLVQSGAEVKKPGASVKVSCKASGYSFTNYYMHWVRQAPGQRLEWMGWIYPGSGNTNYNEKFQGRVTITADTSASTAYMELSSLRSEDTAVYYCSTAPGGFDVWGQGTTVTVSS
VL: DIVMTQTPLSLSVTPGQPASISCKSSKSLLHSDGITYLYWYLQKPGQSPQLLIYRMSNLASGVPDRFSGSGSGTDFTLKISRVEAEDVGVYYCAQMLEFPLTFGQGTKLEIKR
notes: Tested as drug product at 20 mg/mL in 20 mM L-histidine, 5 mM methionine, 100 mM NaCl, 0.02% polysorbate-80, pH 5.8; also called 4A11.H3L1; IMT006a
For B1, the Kd (Galectin-3 [1]) was 2.5 nM, the IC50 (Galectin-3 [2]) was 1.5 µg/mL and the IC50 (Galectin-3 [3]) was 1.5 µg/mL. The IC50 (Galectin-3 [4]) was 1.8 µg/mL, the Kd (Galectin-3 [5]) was 3.7 nM and the IC50 (Galectin-3 [6]) was 2.5 µg/mL. It also gave a Kd (Galectin-3 [7]) of 3.1 nM, a Kd (Galectin-3 [8]) of 2.5 nM and an IC50 (Galectin-3 [9]) of 1.8 µg/mL. It also gave a Kd (Galectin-3 [10]) of 3.5 nM, a Kd (Galectin-3 [11]) of 2.5 nM and an IC50 (Galectin-3 [12]) of 1.2 µg/mL. The Kd (Galectin-3 [13]) was 2 nM, the IC50 (Galectin-3 [14]) was 1.8 µg/mL and the IC50 (Galectin-3 [15]) was 1.5 µg/mL. It also gave an IC50 (Galectin-3 [16]) of 1.5 µg/mL, an IC50 (Galectin-3 [17]) of 1.5 µg/mL and a Kd (Galectin-3 [18]) of 3 nM. It also gave a Kd (Galectin-3 [19]) of 3.1 nM.
